The target in this experiment is recombinantly expressed FphB protein (rFphB), wild type (Staphylococcus aureus) (UniProt Q2FV90).

For the substance FphB-OX-5 (peptide), the IC50 of inhibition of rFphB (100 nM), cleavage of the 4-MUB substrate (20 μM) turned out to be 1800 nM.
